Assay results taken from the DeepSol protein solubility set.

Assay: soluble on expression in E. coli; label from the status in PepcDB or PDB records

Sequence | soluble on expression in E. coli
MHESVTANIENVKKVAHHIQKLTSIVPEIGIICGSGLGKLADGVKDKITIPYTKIPNFPQTSVVGHSGNLIFGTLSGRKVVVMQGRFHMYEGYSNDTVALPIRVMKLLGVKILMVSNAAGGLNRSLKLGDFVILKDHIYLPGLGLNNILVGPNQEAFGTRFPALSNAYDRDLRKLAVQVAEENGFGNLVHQGVYVMNGGPCYETPAECTMLLNMGCDVVGMSTIPEVVIARHCGIQVFAVSLVTNISVLDVESDLKPNHEEVLATGAQRAELMQSWFEKIIEKLPKD | soluble
MDINKLKLTPDSSIKEALKIVGQERVRLGIIVDKKDKFLGVISDSNIRKALISGKTLKDSIKDIYTKNPITIKENTSKEQLLKISAKTDIYDFPVLDEKGQILSIKSISSLLKANPNSIIIMAGGLGSRLKELTKDTPKPMLKVGKKPILESIIQRLKNQNFENFIFCVNYKKQIIEDYFQKGQKFGVKISYIKERKKLGTAGALSLIKQEFKESFIVMNADILTELDFNALLKAHKKSKALMSVCVREFEQQIPYGVITQKQGFIENIEEKPTQKFLVSAGIYVLENEILNLIAKNEYLDMPELIKLVLQKGKVNTYIINDYWIDIGRPDEFLKANEDFKLEHHHHHH | soluble
MTFMSEVKFETVEQKASYGIGLQMGQQLAGSGLEGLNVAAIAAGIATALVGEQPAISIDEINQALHAIHMRAEEARQEAAKVAASEGEAFLKDNALRPEVTVLESGLQYEVLVEGNGAIPTSDKSVRVHYHGQLVDGTVFDSSVSRGQPAEFPVTGVIRGWVEALQLMPVGSKWKLYIPHNLAYGERGAGAAIPPFAALVFEVELLDIL | not soluble
MVPVVALVGRPNVGKSTLFNRLTRTRDALVADFPGLTRDRKYGRAEIEGREFICIDTGGIDGTEDGVETRMAEQSLLAIEEADVVLFMVDARAGLMPADEAIAKHLRSREKPTFLVANKTDGLDPDQAVVDFYSLGLGEIYPIAASHGRGVLSLLEHVLLPWMEDLAPQEEVDEDAEYWAQFEAEENGEEEEEDDFDPQSLPIKLAIVGRPNVGKSTLTNRILGEERVVVYDMPGTTRDSIYIPMERDGREYVLIDTAGVRKRGKITDAVEKFSVIKTLQAIEDANVVMLVIDAREGISDQDLSLLGFILNSGRSLVIVVNKWDGLSQEVKEQVKETLDFRLGFIDFARVHFISALHGSGVGNLFESVREAYDSSTRRVGTSMLTRIMTMAVEDHQPPLVRGRRVKLKYAHAGGYNPPIVVIHGNQVKDLPDSYKRYLMNYFRKSLDVMGSPIRIQFKEGENPYANKRNTLTPTQMRKRKRLMKHIKKNK | not soluble
GAMGDDSMRMSHLKVGSAADIPINISETDLSLLTATVVPPSGREEPCLLKRLRNGHVGISFVPKETGEHLVHVKKNGQHVASSPIPVVISQSEIGDASRVRVSGQGLHEGHTFEPAEFIIDTRDAGYGGLSLSIEGPSKVDINTEDLEDGTCRVTYCPTEPGNYIINIKFADQHVPGSPFSVKVTGEGRVK | soluble
MDWNHYRFRSRWPLPAPAPDVYRALERIEDYPRWWPQVREVTRLDDTSGLLRFRSLLPYDLTATVREQRRDPTEGVLEVAMSGDMEGWARWTVAPRGSASLVRYDQEVVVRKPLLRRLAVPGRPLFRANHRLMMRAGRRGLAAHLAGGRQAVLEHHHHHH | soluble
MAHHHHHHMMSKPHHATLESIKYTPGSLRLLDQRKLPLETVFDDVLTVEDIWSAIKEMRVRGAPAIAVSAALGIAVATQRKAANGELKSGREVQTFLLTSCDFVMTSRPTAVNLFNCLRDLKAQVDKLDPTKAAAEVAQAFVELAEAVYTNDVAFNEGIMRHGAAHILAAAKAEGRDKVSILTICNTGALATSRYGTALGVVRQLFYDGKLERVYACETRPWNQGARLTVYECVQEDIPCTLICDGAASSLMLNRKIDAVVVGADRICQNGDTANKIGTYNLAVSAKFHGVKLYVAAPTTTLDVKTASGNHVEIEEREPTEITTNLVTKQRVVADGPHLSIWNPVFDITPSELITGGIITEKGVQAPAASAPYYDIASIIAQA | soluble
MGIFSRFADIVNSNISALLDKAEDPEKMIRLIIQEMEDTLVEVRTNSAKAMADKKELARKVESIEQQLEDWQNKATLALTKQREDLARAALIEKQKLQHVLKGLHTEQMLVEETIEKLTGEIGKLETKITETRAKQQALAIRSQAASHRRDVQRHLHAGRTEEAMAKFEQFSRKVDELEAEADLYAQSGQARSLEQEFAELQAQDEIEKELNKLKAQMKSDQLEHHHHHH | soluble
MSLGATNRLACYSDPADHYSHRVRLVLAEKGVSVQLIDVDPAHLPRKLAEVNPYGSVPTLVDRDLALYESTVVMEYLEERYPHPPLMPVYPVARGNSRLLMHRIQRDWCALADTVLDPRSSEAARTEARKALRESLTGVSPLFSEFACFMSDEQSLVDCCLLPILWRLPVLGIELPRQAKPLLDYMERQFAREPFQASLSSVEREMRKLEGHHHHHH | soluble
MGSDKIHHHHHHMEQLLHYVWKHKIFPLKELKTTTGQQVEVIDTGLANTDAGPDFFNAKLKLDGVLWIGNIEIHERSSDWFKHGHHADAGYNSVILHIASEIDTEISRSNGERIPQIQLICPEAVRTNYKELLETDSYPPCYRIIPSLPPFTAHSWMTALQMERFEQKATLLNERLKRCQGNWEDAFFITLARNFGFGLNGDAFETWAHRLPFRAVDKHRNDLFQIEAIFFGQAGILEDSDGDGYYLRLKKEYTYLQHKFGLIPMDASLWRFLRLRPANFPHIRIAQLACLYHRAYGLLSRIMETETLQGVRDILKGGTSEYWLTHYTFGGSSPSRPKTLSNTSLDLLIINTVVTFLYAYGLHKGNRVLCARAGCFLEELKAENNYITRMWEQCGMKASNAADSQALIQLKKEYCDKKKCLYCRIGYEYLKRS | not soluble
MRPEDEALIVACIPSLRRYARGLTGERDRADDLVQDTLERAWSRFSRWQRRGELRAWMFGIMHNQFIDGLRAQKRQADYGAETEIPELPVRATQADRLEVRDLDRHLQRLPADLRAVLLLVAVEEFTYREAAQVLEVPIGTVMSRLSRARERLAALLQVQAEAPAASTVQRIRAT | not soluble
AYESIQVTSAQKHVLHVQLNRPEKRNAMNRAFWRELVECFQKISKDSDCRAVVVSGAGKMFTSGIDLMDMASDILQPPGDDVARIAWYLRDLISRYQKTFTVIEKCPKPVIAAIHGGCIGGGVDLISACDIRYCTQDAFFQVKEVDVGLAADVGTLQRLPKVIGNRSLVNELTFTARKMMADEALDSGLVSRVFPDKDVMLNAAFALAADISSKSPVAVQGSKINLIYSRDHSVDESLDYMATWNMSMLQTQDIIKSVQAAMEKKDSKSITFSKL | soluble
AGLPRNAVTAVVPSPFHHAEAGVLRVPDLKADPRNAAEHTAAIIRELPELVKGARGSLVLFSSRKQMQEVFDGLDRDWRKRVFIQGNLSKQETLNKHKSRVDDGEDSVLFGLASFAEGVDLPGAYCEHVVIAKIPFAVPDDPVEAALAEWIEARGGNPFMEIAVPDASLRLVQACGRLLRTEQDRGTITLLDRRVVTQRYGKAILNALPPFRREIA | not soluble
MHHHHHHSSGVDLGTENLYFQSMTKTWTLKKHFVGYPTNSDFELKTSELPPLKNGEVLLEALFLTVDPYMRVAAKRLKEGDTMMGQQVAKVVESKNVALPKGTIVLASPGWTTHSISDGKDLEKLLTEWPDTIPLSLALGTVGMPGLTAYFGLLEICGVKGGETVMVNAAAGAVGSVVGQIAKLKGCKVVGAVGSDEKVAYLQKLGFDVVFNYKTVESLEETLKKASPDGYDCYFDNVGGEFSNTVIGQMKKFGRIAICGAISTYNRTGPLPPGPPPEIVIYQELRMEAFVVYRWQGDARQKALKDLLKWVLEGKIQYKEYIIEGFENMPAAFMGMLKGDNLGKTIVKA | soluble
MSPEKQPLPAALVGSHVRAAAGTPADLATDRKFWTGLSRAVQERIADDWERTREAYGAARQQHYFSAEFLMGRALLNNLTNLGLVDEAAAATRELGHELTDILEIENDAALGNGGLGRLAACFLDSAVTQDYPVTGYGLLYRFGLFRQSFNEGFQVEKPDPWREEEYPFTIRRASDQLVVCFDDMKTRAIPYDMPITGYGTHNVGTLRLWKAEPWEEFDYDAFNAQRFTDAIIERERVSDICRVLYPNDTTYEGKKLRVRQQYFFTSASLQAMIQDHLAHHKDLSNFAEFHSVQLNDTHPVLAIPELMRLLMDEHDMGWEESWAIVSKTFAYTNHTVLTEALEQWDEQIFQQLFWRVWEIIAEIDRRFRLERAADGLDEETINRMAPIQHGTVHMAWIACYAAYSINGVAALHTEIIKAETLADWYALWPEKFNNKTNGVTPRRWLRMINPGLSDLLTRLSGSDDWVTDLDELKKLRSYADDKSVLEELRAIKAANKQDFAEWILERQGIEIDPESIFDVQIKRLHEYKRQLMNALYVLDLYFRIKEDGLTDIPARTVIFGAKAAPGYVRAKAIIKLINSIADLVNNDPEVSPLLKVVFVENYNVSPAEHILPASDVSEQISTAGKEASGTSNMKFMMNGALTLGTMDGANVEIVDSVGEENAYIFGARVEELPALRESYKPYELYETVPGLKRALDALDNGTLNDNNSGLFYDLKHSLIHGYGKDASDTYYVLGDFADYRETRDRMAADYASDPLGWARMAWINICESGRFSSDRTIRDYATEIWKLEPTPAVKK | soluble
ENLYFQGMKPIHVGLLGLGTVGGGTLTVLRRNAEEITRRAGREIRVVRAAVRNLDKAEALAGGLPLTTNPFDVVDDPEIDIVVELIGGLEPARELVMQAIANGKHVVTANKHLVAKYGNEIFAAAQAKGVMVTFEAAVAGGIPIIKALREGLTANRIEWLAGIINGTSNFILSEMRDKGAAFDDVLKEAQRLGYAEADPTFDIEGIDAAHKLTILSAIAFGIPMQFERAYTEGISQLTREDVRYAEELGYRIKLLGIARRAENGIELRVHPTLIPERRLIANVDGAMNAVLVKGDAVGPTLYYGAGAGSEPTASAVVADLVDVTRLHTADPHHRVPHLAFQPDQLADTPILPMEAVRTAYYLRLRAFDRPGVLADITRILADSSISIDAMVQKEPAEGEEQVDIILLTHVTLEKNVNAAIAKIEALDAVAGKVMRIRLEDLGAK | soluble
MTVPEEAQTLIGKHYRAPDHFLVGREKIREFAVAVKDDHPTHYSEPDAAAAGYPALVAPLTFLAIAGRRVQLEIFTKFNIPINIARVFHRDQKFRFHRPILANDKLYFDTYLDSVIESHGTVLAEIRSEVTDAEGKPVVTSVVTMLGEAAHHEADADATVAAIASILEHHHHHH | soluble
MGHHHHHHSHKIRVAHTPDADDAFMFYAMTHGKVDTWLEIEHVIEDIETLNRKAFNAEYEVTAISAHAYALLDDKYRILSAGASVGDGYGPVVVAKSEISLDGKRIAVPGRYTTANLLLKLAVEDFEPVEMPFDRIIQAVLDEEVDAGLLIHEGQITYADYGLKCVLDLWDWWSEQVKLPLPLGLNAIRRDLSVEVQEEFLRAMRESIAFAIENPDEAIEYAMKYSRGLDRERAKRFAMMYVNDYTYNMPESVDAALKKLYEMAEAKGLI | not soluble
ICTTICPYGRLQGVLLDKNSINVAYDYIRGERRGHLKRGEDREIAGKGDCIDCHQCVHVCPTGIDIRNGVQMECINCTACIDEC | not soluble
MTHSQQSMVDTFRASLFDNQDITVADQQIQALPYSTMYLRLNEGQRIFVVLGYIEQEQSKWLSQDNAMLVTHNGRLLKTVKLNNNLLEVTNSGQDPLRNALAIKDGSRWTRDILWSEDNHFRSATLSSTFSFAGLETLNIAGRNVLCNVWQEEVTSTRPEKQWQNTFWVDSATGQVRQSRQMLGAGVIPVEMTFLKPAPLEHHHHHH | soluble
